Target: the molecule itself
Assay: SEC; data not shown; 10 uM AGTmi E274D with 100 uM PLP, Sephacryl S-300 10/600 column, 100 mM potassium phosphate buffer pH 7.4, elution volume compared with molecular weight standards

B1: alanine: glyoxylate aminotransferase, minor allele variant, E274D (enzyme, human)
chain: MASHKLLVTPLKALLKPLSIPNQLLLGPGPSNLPPRIMAAGGLQMIGSMSKDMYQIMDEIKEGIQYVFQTRNPLTLVISGSGHCALEAALVNVLEPGDSFLVGANGIWGQRAVDIGERIGARVHPMTKDPGGHYTLQEVEEGLAQHKPVLLFLTHGESSTGVLQPLDGFGELCHRYKCLLLVDSVASLGGTPLYMDRQGIDILYSGSQKALNAPPGTSLISFSDKAKKKMYSRKTKPFSFYLDIKWLANFWGCDDQPRMYHHTIPVISLYSLRDSLALIAEQGLENSWRQHREAAAYLHGRLQALGLQLFVKDPALRLPTVTTVAVPAGYDWRDIVSYVMDHFDIEIMGGLGPSTGKVLRIGLLGCNATRENVDRVTEALRAALQHCPKKKL
notes: alanine: glyoxylate aminotransferase (AGT), human, minor allele (P11L, I340M) with the PH1-associated mutation E274D; SEC was run in the presence of 100 uM PLP (holo form); E274D was found in patients on the minor allele; also called AGTmi E274D; AGTmi^E274D; source: bacteria (pET30a), purified
- stoichiometry N: 2
